Results published in patent US20140056960A1, “Methods for Improving Fracture Healing and Bone Formation” (Imperial Innovations Limited, priority 2010, published 2014).
Entries after “also recorded” stand apart in the source; their conditions may differ.

Columns and labels:
[1] = test system: muscle derived stromal cells (MDSCs); experiment: osteogenic activity of supernatant from stimulated PBMCs: alkaline phosphatase in MDSCs over 7 d; assay type: cell-based, human; conditions: S100 A8 at indicated doses (μg/ml) or LPS 10 ng/ml; MDSCs 7 d
Method: FIG. 15. Supernatant from PBMCs stimulated with S100A8 but not LPS is osteogenic. PBMCs at 1*10^5/ml were stimulated with S100 A8 at indicated doses (μg/ml), or LPS at 10 ng/ml. The supernatants were harvested and filter-sterilised through a 0.2 μm filter. MDSCs were cultured in this S100 A8-stimulated supernatant over 7 d and alkaline phosphatase levels quantified.
FIG. 16. Osteogenic activity of supernatant from human monocytes exposed to varying doses of LPS.

[2] = test system: tibial fracture; experiment: murine tibial fracture model: callus mineralization (microCT) and histology after local administration at fracture site; assay type: in vivo, mouse; conditions: exogenous alarmin at fracture site days 0 and 1 (rmHMGB1 20 μL at 50 ng/ml); day 28 microCT
Method: Percentage callus mineralization was determined from the fracture site to 1 mm proximally (mean+/−SEM). FIG. 5. Dose response of exogenous TNF-α in vivo. 20 μL of PBS with rhTNF-α at the corresponding dose was injected at the fracture site at days 0 and 1 in C57BI/6 mice. At day 28, mice were harvested and limbs scanned by microCT in a blinded fashion. Percentage callus mineralization was determined from the fracture site to 1 mm proximally (threshold density of 350 mg/cm^3). * p<0.05, ** p<0.01. FIG. 7A. […] Percentage callus mineralization was determined from the fracture site to 1 mm proximally (mean+/−SEM). FIG. 18. […] C57BI6 mice were subjected to fracture model with addition of 20 μL of rmHMGB1 at 50 ng/ml at the fracture site at days 0 and 1 compared to controls. Addition of exogenous S100A8 or S100A9 or S100A8/9 had no effect, possibly because the fracture environment may already contain optimal amounts of S100 A8 or A9 proteins. All mice were harvested at day 28 and limbs scanned by microCT in a blinded fashion. Percentage callus mineralization was determined from the fracture site to 1 mm proximally (mean+/−SEM). […] Inflammation plays a vital role in early fracture repair^11,12. In murine models, TNF-α, IL-1 and IL-6 are expressed at the fracture site within 24 hours of injury^13,14. Biphasic expression of TNF-α and IL-1β appears to be linked to the initiation of fracture repair and later to endochondral maturation^14,15. In our murine model, callus mineralization at day 28 was enhanced when TNF-α, at a concentration of 50 ng/kg was injected locally following injury (day 0) and 24 hours later.

[3] = test system: PBMCs; experiment: IL-6 and IL-1β production by PBMCs stimulated with S100 A8 (ELISA); assay type: cell-based, human; conditions: S100 A8 0.5 μg/ml with antibody to TLR4, TLR2 or sRAGE, 14 hours
Method: FIG. 13. […] PBMCs at 1*10^5/ml were incubated in 10% FCS with S100 A8 0.5 μg/ml with the addition of either antibody to TLR4, TLR2 or isotype controls, or sRAGE over 14 hours. IL-6 (A) and […] (B) levels were determined by ELISA.

[4] = test system: PBMCs; experiment: TNF-α production by PBMCs (ELISA, 14 hours); assay type: cell-based, human; conditions: PBMCs 1*10^5/ml, 10% FCS, alarmin at indicated doses
Method: FIG. 10. […] (A) PBMCs at 1*10^5/ml were incubated in 10% fetal calf serum (FCS) with S100 A8 at indicated doses. […] (B) PBMCs at 1*10^5/ml were incubated in 10% FCS with S100 A8 at 0.5 μg/ml with the addition of either antibody to TLR4, TLR2 or isotype controls (not shown), or sRAGE over 14 hours. TNF-α levels were determined by ELISA.
FIG. 12. […] PBMCs at 1*10^5/ml were incubated in 10% FCS with S100 A8, S100 A9 or S100 A12 at the indicated doses over 14 hours. TNF-α levels were determined by ELISA.
FIG. 17. […] PBMCs at 1*10^5/ml were incubated in 10% FCS with HMGB1 or LPS at the indicated doses over 14 hours; TNF-α levels were determined by ELISA.

B1: S100A8: alarmin; rhS100A8 added to human PBMCs (protein, UniProt P05109 1-93, looked up)
Protein S100-A8: MLTELEKALNSIIDVYHKYSLIKGNFHAVYRDDLKKLLETECPQYIRKKGADVWFKELDINTDGAVNFQEFLILVIKMGVAAHKKSHEESHKE
osteogenic activity of stimulated PBMC supernatant (alkaline phosphatase) [1]: led to osteogenesis; also recorded: osteogenic
fracture healing / percentage callus mineralization [2]: no effect
receptor dependence of IL-6 and IL-1β production [3]: produced by monocytes via TLR4 and also RAGE, but not TLR2
TNF-α production by PBMCs ([4]; listed as S100 A8): stimulates monocytes to produce TNF-α in a dose dependent manner; also recorded: dose-dependent increase in TNF-α production
TNF-α production by PBMCs ([4]; listed as rhS100A8): resulted in production of TNF-α
